Results reported in patent US20250188153A1 (UNIVERSITY OF GEORGIA RESEARCH FOUNDATION, published 2025).

B1: MPV486 (antibody, V domains shown)
VH: EVQLVESGGHLVQSGGSLRLSCAASGFTFSNYILNWVRQAPGKGLEWISYITGGSSAIYYADSVKGRFTISRDDAKNSLYLQMNNLRAEDTAVYYCARSHGYDSSGYYYYFAMDVWGQGTTVTVSS
VL: QSVLTQPPSASGTPGQRVTISCSGSNSNIESNTVNWYQQIPGTAPKLLIYSDNRRPSGVPDRFSGSKSGTSASLAISGLQSEDEADYYCAAWDDSLIGYVFGTGTKVTV
B2: MPV456 (antibody, V domains shown)
VH: QVQLQESGPGVVKPSGTLSLTCGVSGGSISSSYWWSWVRQPPGKGLEWIGEIYHSGSTNYNPSLKRRVTISVDKSKNQFSLKVTSVTAADTAVYYCARGPIQYYDILTEERVGYCDYWGQGTLVTVSS
VL: TLSASVGDRVTITCRASQSISSWLAWFQQKPGKAPKLLIYKTSSLESGVPSRFSGSGSGTEFTLTISSLQPDDFATYYCQEYNSYSRTFGQGTKVEIK
B3: MPV414 (antibody, V domains shown)
VH: QVQLVQSGPEVKKPGSSVMVSCKTSGGNFNNFAISWVRQAPGQGLEWMGGIVPIFGTANYAQKSQDRVTITADPSSSTAYLQLSSLTSDDTAIYYCARDLGRSSNYYYYSVFESWGQGTLVTVSS
VL: DIVMTQSPATLSLSPGERATLSCRASQSVGDKLAWYQQKPGQAPRLLIYGASTRATDIPARFSGSGSGTEFTLTVSSLQPEDFAVYYCQQYENWPPITFGQGTRLEIK
B4: MPV464 (antibody, V domains shown)
VH: QVQLQESGPGLVKPSQTLSLTCTVSGGSVRGGGDYWSWIRRPPGKGLEWIGHIYNSGTTFYNPSLKSRVTISIDTSKNQFSLKLRSVTAADTAVYYCGRVGSRATGLPDWIDPWGQGTLVTVSS
VL: SYELTQPPSVSVSPGQTATITCSGTNLGAKYSCWYQQKPGQSPVLVIFQDNKRASGIPARFSASTSGDTATLTISGTQVMDEADYFCQAWDSRTAVFGGGTTLTVL
B5: MPV489 (antibody, V domains shown)
VH: EVQLLESGGGLVQPGGSLRLSCAASKFTFNNYEMNWLRQAPGKGLEWVSSISSSGDTIHNADSVKGRFIISRDNAKNSLHLQMNGLRAEDTAVYYCARAGSGWAYDAFDIWGLGTMVTVSS
VL: LSASVGDRVTITCRASQSISSFLNWYQQKPGKAPKLLMYAASSLPVGVPSRFSGSGSGPEYTLTISNLQPEDFATYYCQQGYSSPPTFGGGTRLEVK
B6: MPV454 (antibody, V domains shown)
VH: EVQLVESGGGLVKPGGSLRLSCSTSGFVFSSYAMHWVRQAPGKGLEHVSAISSTGDNTHYADSVKGRFTISRDNSRGRLYLQMTSVRPEDAALYYCVKDLYSGRFYYFLDDWGQGTRIIVSS
VL: DIQVTQSPSSLSASVGDRVTISCRASQNISNYLNWFQQRPGKAPKLLIYVASTLQSGAPSRFSGSGSGTDFTLTITDLQPEDFATYYCQQSYNTPPITFGQGTRLEIK
B7: MPV491 (antibody, V domains shown)
VH: QVQLQESGPGLVKSSQTLSLTCTVSGGSISSVTSHWTWIRQHPGKGLEWIGYIFSSGTTYYSPSLRSRLTMSVDTSKNQFSLQLSSVTAADTAMYYCARGIYCGDSCYKGTDYWGRGTLVTVSS
VL: IRLMTQTPVTLPVTPGEPASISCRSSQSLLHSNGYNYLDWYLQKPGQSPQLLIYRGSTRASGVPDRFSGSGSGTEFTLKISRVEAEDVGVYYCMQGLQTPYTFGQGTKLESR
B8: MPV487 (antibody, V domains shown)
VH: EVQLLESGGGLVQPGRSLRLSCTASGFTFDDYAMHWVRQLPGKGLEWVSGISWNSDNIGYADSVKGRFTISRDNGKNSLYLQMNSLRAEDTAFYYCAKDVRIDYDLLIGHIDYWGPGTLVTVSS
VL: TQSPVTLSLSPGERATLSCRASQSFGGYCAWYQQKPGQSPRLLIYDASNRATGVPARFSGSGSGTDFTLTISSLEPEDSAVYFCQQRGNWPIFGQGTRLEI
B9: MPV482 (antibody, V domains shown)
VH: EVQLVQSGGGVVQPGRSLRLSCAASGFTFSSFAMHWVRQAPGKGLEWVALISDDGNNKYHADSVKGRFTISRDSSKNTLYLQMNSLRGEDTAVYYCARDGSVVGAAAHCDHWGQGTLVTVSS
VL: SYELTQPPSVSVSPGQTARITCSGDALPNQCAYWYQQKPGLAPVLLIYKDKERPSGIPERFSGSISGTTVTLTISGVQAEDEADYYCQSSDSSSTVVFGGGTKLTVL
B10: MPV483 (antibody, V domains shown)
VH: EVQLVQSGAELKKPGSSVKVSCKASGDTFSNYAISWVRQAPGQGLEWMGGIIPIYNTANYAQKFQGRVTLTADESTSTAYMELSSLRSEDTAVYYCARDVRNNWSVLRGARYYYYGMDVWGQGTTVTVSS
VL: DIVMTQTPFSLSASVGDRVTVTCRASQDISNSLAWFQQKPGKAPKSLIYAASSLQSGVPTRFSGGGSGTDFTLTISSLQPEDFATFYCLQYDSFPPTFGGGTKVEI
B11: MPV481 (antibody, V domains shown)
VH: EVQLVQSGGGLVKPGGSLRLSCAASGLPFNNAWMNWVRQAPGKGLEWVGRIKSKIDGGTTEYAAPVKGRFTISRDDSENTLYLQMNSLRTEDTAVYYCTTEYYALLSGNYSDCWGQGTLVTVSS
VL: DIVMTQSPFSLSLSPGERATLSCRASQSIKRAYLGWYQQKPGQAPRLLIYGASNRATGIPDRFSGSGSGTDFTLTISRLEPEDFAVYYCQQYGDSPGGSFGQGTKLEIR
B12: MPV478 (antibody, V domains shown)
VH: EVQLVQSGAEVKKPGASVKVSCNASGYTFTGYYIHWVRQAPGQGLEWMGWINPRSGGTNYAQKFQGRVTLTRDTSITTAYMDVTRLRPDDTAVYYCATTREGIVLMPRGRGDDALDTWGQGTTVIVSS
VL: DIVMTQSPVSLTVSLGERATINCKSSQSVLSTSNNENYLAWYQQKPGQPPNLLIYWASTRESGVPDRFSGSGSGTDFTLTISSLQAEDVAVYYCQQYFATPITFGPGTKVDVK

Legend:
Test in all cases: cell-based or functional assay
[1] = target: T1, hMPV F protein of hMPV CAN/97-83 (genotype A) (human metapneumovirus, UniProt Q6WB98 19-539)
T1 sequence (Q6WB98 19-539): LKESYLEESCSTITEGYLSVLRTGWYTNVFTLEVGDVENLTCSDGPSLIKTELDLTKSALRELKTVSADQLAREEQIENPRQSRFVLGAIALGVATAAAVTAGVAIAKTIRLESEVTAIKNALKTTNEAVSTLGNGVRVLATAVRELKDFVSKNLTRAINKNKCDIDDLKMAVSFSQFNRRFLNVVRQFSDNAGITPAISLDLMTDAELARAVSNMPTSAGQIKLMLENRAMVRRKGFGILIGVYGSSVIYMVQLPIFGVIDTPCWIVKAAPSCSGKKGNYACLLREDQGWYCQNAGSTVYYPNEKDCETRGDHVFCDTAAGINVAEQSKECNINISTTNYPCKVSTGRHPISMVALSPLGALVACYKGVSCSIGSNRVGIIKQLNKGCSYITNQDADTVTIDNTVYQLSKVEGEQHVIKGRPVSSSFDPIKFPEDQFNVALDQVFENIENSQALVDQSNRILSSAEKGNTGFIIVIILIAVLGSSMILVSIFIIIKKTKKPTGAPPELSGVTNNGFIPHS

[2] = target: hMPV F protein of hMPV TN/93-32 (genotype B) (human metapneumovirus)
[3] = target: T1, hMPV F protein of hMPV CAN/97-83 …; remark: listed apart in the source

Binder | IC50, plaque-reduction neutralization of hMPV CAN/97-83 [1] [µg/mL] | IC50, plaque-reduction neutralization of hMPV TN/93-32 [2] [µg/mL] | neutralizing activity, plaque-reduction assay [3] [ng/mL]
B1 | 0.51 | 0.062 | –
B2 | 0.45 | 0.81 | –
B3 | 0.044 | 0.59 | –
B4 | 0.14 | 0.4 | –
B5 | 3.6 | 2.3 | –
B6 | 0.002 | 0.025 | < 20
B7 | 5.7 | 1.9 | –
B8 | 0.003 | 0.012 | < 20
B9 | 0.014 | 0.047 | < 20
B10 | 0.032 | 0.11 | –
B11 | 0.096 | 0.26 | –
B12 | 0.21 | 0.068 | –
